Publication PMC11162469, “Discovery of RXFP2 genetic association in resistant hypertensive men and RXFP2 antagonists for the treatment of resistant hypertension” (Scientific Reports, 2024)

T1: linker-less human LDLa peptide (Q8WXD0 43-80) (Homo sapiens, UniProt Q8WXD0, not fully specified)
T1 construct: relaxin family peptide receptor 2 (RXFP2), human, LDLa module without the linker, residues 43-80; also called LDLa linker-less domain
T1 chain: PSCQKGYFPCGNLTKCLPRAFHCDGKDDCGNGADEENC

B1: RXFP2 mAb 1F2 (antibody, V domains shown)
VH: QVQLKQSGPGLVQPSQSLSITCTVSGFSLTAYGVNWVRQSPGKGLEWLGVIWSGGNTDYNAPFISRLSITKDNSKSQVFFKMNSLEADDTAIYYCARAKGYYAMDYWGQGTSVTVSS
VL: DIQMTQSPASLSVSVGESVTITCRATENIYSNLVWYQQKQGQSPQLLVYAVTSLADGVPSRFSGSGSGTQYSLKINSLQSEDFGTYYCQHFWGTPYTFGGGTKLEIK
notes: heavy chain variable domain; rat IgG2b heavy chain constant region (rat IgG2b backbone, in-house construct); Recombinant in a rat IgG2b backbone; found as a mouse hybridoma clone; source: Expi293, transfected, purified (Protein G)
B2: RXFP2 mAb 4H2 (antibody, V domains shown)
VH: QVQLRQSGPSLVQPSQSLSITCTVSGFSLTNYGVHWVRQSPGKGLEWLGVIWRGGNTDHNAAFMSRLSITKDNSESQVFFKMNSLQVDDTAIYYCAKAEGYYALDYWGQGTSVTVYS
VL: DIQMTQSPASLSVSVGETVTITCRASENIYSNLAWYQQKQGKSPQLLVYAVTNLADGVPSRFSGSGSGTQYSLKINSLQSEDFGSYYCQHFWGTPWTFGGGTKLEIK
notes: as for B1
B3: RXFP2 mAb 4H5 (antibody, V domains shown)
VH: QVQLKQSGPGLVQPSQSLSITCTVSGFSLTNYGVHWVRQSPGKGLEWLGVIWRDGNTDYNAAFMSRLSITKDNSKSQVFFEMNSLQVDDTAIYYCCRGDGYYAMGYWGQGTSVTVSS
VL: DIQMTQSPASLSVSVGETVTITCRASENIYSNLAWYQQRQGRSPQLLVYAATNLADGVPSRFSGSGSGTQYSLKINSLQSEDFGNYYCQHFWGSPRTFGGGTKLEIK
notes: as for B1
B4: RXFP2 mAb 4B1 (antibody, V domains shown)
VH: QVQLQQSGAELVRPGSSVRISCKASGYAFSNSWINWVKQRPGQGLEWMGQIYPGDGNTNYNGRFKDKATLTADKSSSTAYMQLSSLTSEDSAVYFCARDHNYWGQGTTLTVSS
VL: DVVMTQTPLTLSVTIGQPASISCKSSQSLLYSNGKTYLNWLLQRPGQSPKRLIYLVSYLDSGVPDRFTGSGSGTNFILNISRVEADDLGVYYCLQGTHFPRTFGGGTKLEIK
notes: as for B1
B5: RXFP2 mAb 4F6 (antibody, V domains shown)
VH: EVQLQQSGPELVKPGASVKMSCKASGYTFTNYVLHWVKQKPGQGLEWIGYINPYNDGSKYNEKFKGRATLTSDKSSSTAYMELSSLTSEDSAVYYCARGGWLLDYFDYWGQGTTLTVSS
VL: DVLMTQSPLSLPVSLGEQASISCRSSQSIVHSDGDTYLEWYLQKPGQSPNLLIYKVSNRFSGVPDRFSGSGSGTDFTLKISRVEAEDLGVYYCFQGSHVPPTFGGGTKLEIK
notes: as for B1
B6: RXFP2 mAb 4G6 (antibody, V domains shown)
VH: EVQLQQSGPELVKPGASVKLSCKASGYTFTSYVMHWVKQKPEQGLEWIGYKNPSNDGIKYNEKFKGKATLTSDKSSNIAYMELFSLTSEDSAVYYCARSDFGSVWAMDYWGQGTSVTVSS
VL: SIVMTQTPKFLLVSAGDRVTITCKASQSVNDDIVWYQQKPGQSPKLLIYYASNRYTGVPDRFTGSGYGTDFTFTISTVQAGDLAVYFCQQDYSSPFTFGSGTKLEIK
notes: as for B1
B7: RXFP2 mAb 4H1 (antibody, V domains shown)
VH: QIQLVQSGPELKKPGETVKISCKTSGYTFTKYPMHWVKQAPGEGLKWMGWINTYSGLPTFADDFKGRFAFSLETSANTADLQINNLKNEDMATYFCAREGKKLSGYFDYWGQGTTLTVSS
VL: DIKMTQSPSSMYASLGERVTITCKASQDINSYLTWFQQKPGQSPKTLIYRANRFVDGVPSRFSGSGSGQDYSLTITSLEYEDMGIYYCLQYDEFPYTFGGGTQLEIK
notes: as for B1
B8: RXFP2 mAb 1G1 (antibody, V domains shown)
VH: EVQLQQSGPELVKPGASVKMSCKASGYTFTDYNMHWVKQKPGQGLEWIGYINPYNDGTEYNEKFKGKATLTSDKSSSTAYMDLSSLTSEDSAVYYCARGLWFAMNYWGQGTSVTVSS
VL: DIQMTQSSSSFSVSLGDRVTITCKASEDIYNRLAWYQQKPGNTPRLLISGATILETGVPSRFSGSGSGKDYTLSIISLQTEDVATYYCQQYWIIPPTFGGGTKLEIK
notes: as for B1

How the values were obtained:
Settings in all cases: both partners purified
[1] = target: T2, human LDLa-linker protein (huRXFP2-LDLa-linker(38-105)) (Homo sapiens, UniProt Q8WXD0); experiment: SPR; Biacore S200; goat anti-rat Fc gamma immobilised on a Series S CM5 chip, purified recombinant rat anti-RXFP2 antibodies captured at 5 µg/mL; rat or human LDLa-linker protein flowed as analyte at 20, 10, 5, 2.5, 1.75 and 0 nM; 1:1 fit model
T2 construct: relaxin family peptide receptor 2 (RXFP2), human, LDLa module and linker, residues 38-105; Expressed as LDLa-linker, enterokinase site, rat Fc, 8xHis; The Biacore methods say only 'LDLa-linker protein'; also called human LDLa-linker domain; source: Expi293, transfected, purified (Histrap excel, SEC); enterokinase digestion, Hispur Ni resin, Superdex 200; not shown: rat Fc, C-terminal, cleaved; …
T2 sequence (Q8WXD0 38-105): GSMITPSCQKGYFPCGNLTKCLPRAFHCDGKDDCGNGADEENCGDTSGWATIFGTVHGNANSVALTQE

[2] = target: T3, rat LDLa-linker protein (ratRXFP2-LDLa-linker(20-88)) (Rattus norvegicus, UniProt Q5ECL0); experiment: as above
T3 construct: relaxin family peptide receptor 2 (RXFP2), rat, LDLa module and linker, residues 20-88; Expressed as LDLa-linker, enterokinase site, rat Fc, 8xHis; The Biacore methods say only 'LDLa-linker protein'; also called rat LDLa-linker domain; source: Expi293, transfected, purified (Histrap excel, SEC); enterokinase digestion, Hispur Ni resin, Superdex 200; not shown: rat Fc, C-terminal, cleaved; 8xHis, …
T3 sequence (Q5ECL0 entry or part of it): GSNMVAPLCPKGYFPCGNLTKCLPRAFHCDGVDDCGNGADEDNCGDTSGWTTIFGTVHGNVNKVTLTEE

[3] = target: T1, linker-less human LDLa peptide (Q8WXD0 …); experiment: ELISA; human LDLa peptide (Q8WXD0 43-80) immobilised at 1 µg/mL in PBS on Maxisorp plates overnight at 4 °C; purified antibodies from 5 µg/mL, diluted 1:2 for 8 points, 1 h at room temperature; HRP secondary antibody, TMB

Row | Binder | binding result [1] | Kd [2] [nM] | binding result [3] | Kd [1] [nM]
1 | B1 | no binding (tested: 20 nM (highest analyte concentration)) | 0.69 | – | –
2 | B2 | no binding (tested: 20 nM (highest analyte concentration)) | 0.32 | – | –
3 | B3 | no binding (tested: 20 nM (highest analyte concentration)) | 0.35 | – | –
4 | B4 | – | 1.97 | no binding (tested: 5 µg/mL (highest antibody concentration)) | 2.75
5 | B5 | – | 1.7 | binds | 11.7
6 | B6 | – | 0.21 | binds | 2.91
7 | B7 | no binding (tested: 20 nM (highest analyte concentration)) | 1.01 | – | –
8 | B8 | no binding (tested: 20 nM (highest analyte concentration)) | 0.18 | – | –
